Assay results from patent US20160312212A1, “COW ANTIBODY SCAFFOLD POLYPEPTIDE METHOD AND COMPOSITION” (Roche Sequencing Solutions, Inc., priority 2015, published 2016).

Biological target: T1, human thrombin (Homo sapiens, UniProt P00734)
T1 construct: biotin (chemical label)
Assay: mRNA display selection against thrombin, selected sequences ranked by next-generation-sequencing frequency
Format: binding
Conditions: for percentage (%): share of recovered sequences; for counts: top binders ranked by frequency
Method: 1 ml of the fusions from the previous step were added to 50 ul of M270 SA beads blocked with TBSTE+2% BSA at room temperature, and were incubated at room temperature for 30 min, and the supernatant was removed for binding with biotinylated thrombin.
8) Pre-Selected Fusions were Bound to 3 ul Biotinylated Human Thrombin at 1 U/ul at 4° C. for 1 h with Rotation
25 ul of M270 SA bead suspension was washed and blocked with TBSTE+2% BSA. The beads were then collected, mixed with 1 ml of each fusion/target complex, and incubated at room temperature for 30 min. The mixture was washed 3× in TBSTE, transferred to a new tube, and the cDNA was eluted with 50 ul of 0.1 N NaOH at room temperature for 3 min. Then 2.5 ul 3M NaAc, pH5.5. BioRad spin column was added and the volume was adjusted to 147 ul with H2O.
The following rounds of selections (3-5) were carried out following the above procedure with increased stringency (e.g. lower amounts of fusion molecule input and increased number of washing steps). After each round of selection, similar PCR amplification was done to prepare the DNA library for the next round of selection.
In summary, for example, one round of mRNA display consisted of the following steps: in vitro transcription, DNase digestion, conjugation with the puromycin oligo linker, in vitro translation/fusion formation, FLAG fusion molecule purification, reverse transcription, pre-selection or functional selection, and regeneration of the selected sequences. Briefly, the cDNA library was in vitro transcribed using T7 RNA polymerase, the mRNA templates with puromycin at the 3′ ends were generated by crosslinking with an oligonucleotide containing a psoralen residue and a puromycin residue at its 5′ and 3′ ends, respectively, and in vitro translation was performed using an NEB Purexpress Δ123 kit. The desired mRNA-protein fusions were then isolated from the translation reaction mixture using anti-FLAG magnetic beads. The fusion molecules were then converted into DNA/RNA hybrids through reverse transcription. This step removed secondary mRNA structures that might interfere with the subsequent selection.
To analyze the results of the selection, the DNA libraries were amplified after each round of selection using specially-designed sequencing primers that harbor Illumina next-generation-sequencing adapters. The libraries were mixed, further purified and next generation sequencing was performed. Peptide sequences recovered after each round of selection were called out according to their unique sequencing barcode and further comparison and analysis was done. Next-generation-sequencing provided the advantages of high throughput and a more complete overview of the selected species.
When thrombin was used as a target, a total of three rounds of selections were carried out. The selection pressure was increased by increasing the washing stringency (from three times to five times then to ten times for selection round 1, 2 and 3). Table 1 illustrates the top binders (ranked according to their frequency) after each round of selection. After selection round 3, more than 30% of the selected peptides contained the conserved “RDPGR” (SEQ ID NO:331) motif. The most abundant peptide “RDPGRLIFQS” (SEQ ID NO:332) was chosen for further analysis.

[1] = Round 2 of selection, five washes
[2] = Round 1 of selection, three washes
[3] = Round 3 of selection, ten washes

Row | Substance | percentage (%) [1] | counts [1] | percentage (%) [2] | counts [2] | percentage (%) [3] | counts [3]
1 | AAVRLNSSS* | 0.0046% | 75 | – | – | – | –
2 | ETRIYIRFHT (MGCTSVHQETKKYQSETRIYIRFHTSYTYNYEHVDVWGCGSADYKDDDDKKK) | 0.0052% | 86 | – | – | – | –
3 | HCDTLELRPA (MGCTSVHQETKKYQSHCDTLELRPASYTYNYEHVDVWGCGSADYKDDDDKKK) | – | – | 1.2E−03% | 40 | – | –
4 | HRLQIATVYT (MGCTSVHQETKKYQSHRLQIATVYTSYTYNYEHVDVWGCGSADYKDDDDKKK) | 0.0109% | 179 | 1.3E−03% | 42 | – | –
5 | KCCTSMVIQL (MGCTSVHQETKKYQSKCCTSMVIQLSYTYNYEHVDVWGCGSADYKDDDDKKK) | – | – | 1.2E−03% | 38 | – | –
6 | LKQTDFRTPI (MGCTSVHQETKKYQSLKQTDFRTPISYTYNYEHVDVWGCGSADYKDDDDKKK) | – | – | 1.2E−03% | 39 | – | –
7 | LQRAISSYSR (MGCTSVHQETKKYQSLQRAISSYSRSYTYNYEHVDVWGCGSADYKDDDDKKK) | – | – | 1.2E−03% | 38 | – | –
8 | PLIHPRRGYA (MGCTSVHQETKKYQSPLIHPRRGYASYTYNYEHVDVWGCGSADYKDDDDKKK) | – | – | 1.3E−03% | 43 | – | –
9 | PPVLPQLVLL (MGCTSVHQETKKYQSPPVLPQLVLLSYTYNYEHVDVWGCGSADYKDDDDKKK) | – | – | 1.4E−03% | 44 | – | –
10 | QFHLEFAFTL (MGCTSVHQETKKYQSQFHLEFAFTLSYTYNYEHVDVWGCGSADYKDDDDKKK) | – | – | – | – | 0.020% | 164
11 | QMSFRFEVRV (MGCTSVHQETKKYQSQMSFRFEVRVSYTYNYEHVDVWGCGSADYKDDDDKKK) | – | – | – | – | 0.025% | 211
12 | RDPGRIVFNN (MGCTSVHQETKKYQSRDPGRIVFNNSYTYNYEHVDVWGCGSADYKDDDDKKK) | 0.0475% | 781 | – | – | 1.144% | 9534
13 | RDPGRLIFQS (MGCTSVHQETKKYQSRDPGRLIFQSSYTYNYEHVDVWGCGSADYKDDDDKKK) | 0.1608% | 2642 | – | – | 20.512% | 170914
14 | RDPGRVIFEI (MGCTSVHQETKKYQSRDPGRVIFEISYTYNYEHVDVWGCGSADYKDDDDKKK) | 0.0993% | 1632 | – | – | 10.038% | 83638
15 | RDPYNVLISL (MGCTSVHQETKKYQSRDPYNVLISLSYTYNYEHVDVWGCGSADYKDDDDKKK) | 0.0170% | 278 | – | – | 0.084% | 702
16 | RFHLFILGTS (MGCTSVHQETKKYQSRFHLFILGTSSYTYNYEHVDVWGCGSADYKDDDDKKK) | – | – | 1.4E−03% | 46 | – | –
17 | RSHGQFSFTF (MGCTSVHQETKKYQSRSHGQFSFTFSYTYNYEHVDVWGCGSADYKDDDDKKK) | – | – | – | – | 0.031% | 258
18 | RTKIK*NGL* | 0.0052% | 86 | – | – | – | –
19 | SIEFGLTFSF (MGCTSVHQETKKYQSSIEFGLTFSFSYTYNYEHVDVWGCGSADYKDDDDKKK) | – | – | – | – | 0.023% | 195
20 | SLFVEYRITY (MGCTSVHQETKKYQSSLFVEYRITYSYTYNYEHVDVWGCGSADYKDDDDKKK) | – | – | – | – | 0.027% | 224
21 | SQSERATPRY (MGCTSVHQETKKYQSSQSERATPRYSYTYNYEHVDVWGCGSADYKDDDDKKK) | – | – | 1.5E−03% | 47 | – | –
22 | TQPKLTIEQR | – | – | 1.3E−03% | 42 | – | –
23 | VTSTYMFMYA | 0.0051% | 84 | – | – | 0.021% | 175
24 | VVEFHFKWCI | 0.0046% | 75 | – | – | – | –
